Data as given in US20260234268A1, “ANTI-ASGR1 MONOCLONAL ANTIBODY AND USE THEREOF” (CHOLESGEN (SHANGHAI) CO., LTD., priority 2022, published 2026).

Key:
LXRα [1] = assay: Western blotting of LXRα in Huh7 cells incubated with purified neutralizing antibody; type: cell-based, human; conditions: 72 hours, Western blotting (FIG. 1c)
Text: (§1) (a) Steps for preparing ASGR1 monoclonal neutralizing antibody. Purified ASGR1 protein is used as the antigen to immunize rabbits, and after the first round of screening, four B-cell monoclonal antibodies are selected as candidates. The coding region of the variable region of the antibody is then sequenced and cloned into an antibody expression vector, which is transfected into mammalian cells. The efficiency of transfection is confirmed by Western blotting and real-time quantitative PCR. Finally, the rabbit-derived Fc fragment is replaced with a murine Fc fragment. The neutralizing antibody 4B9 is selected for large-scale production and used in subsequent experiments. (b) ASGR1 protein purified from HEK293T cells is stained with Coomassie Brilliant Blue. (c) Huh7 cells are incubated with purified neutralizing antibody for 72 hours, followed by Western blotting analysis of the protein expression of LXRα. (d) Primary hepatocytes are isolated from 8-week-old wild-type C57B/L6 mice. […] The primary hepatocytes are incubated with ASGR1 neutralizing antibody 4B9 for 72 hours, after which cells are collected, total RNA is extracted from the cells, and target genes of LXR are analyzed by real-time quantitative PCR. […]

LXRα [2] = assay: Western blotting of LXRα in primary hepatocytes incubated with monoclonal neutralizing antibodies; type: cell-based, mouse; conditions: primary hepatocytes of wild-type C57B/L6 mice, various concentrations, 72 hours, Western blotting (FIG. 1d)
target genes of LXR = assay: Real-time quantitative PCR of target genes of LXR in primary hepatocytes incubated with 4B9; type: cell-based; conditions: primary mouse hepatocytes, 72 hours, real-time quantitative PCR (FIG. 1e)
Text: as §1

[3] = test system: mice fed a high-fat, high-cholesterol, and cholate (HF/HC/BS) diet; assay: 4B9 in mice fed HF/HC/BS diet, 14 days (Example 1, FIG. 2); type: in vivo, mouse
Text: (§2) All data are presented as mean±SEM.
We further investigated whether 4B9 was able to completely simulate the improvement of Asgr1 deletion on high-fat, high-cholesterol conditions.

[4] = test system: mice fed a high-fat, high-cholesterol, and cholate (HF/HC/BS) diet; assay: 4B9 and Ezetimibe, alone or combined, in mice fed HF/HC/BS diet (Example 3, FIG. 4); type: in vivo, mouse
Experimental: as §2
We then devised an experiment as in FIG. 4 to verify the hypothesis. Mice were randomly divided into 8 groups according to the genotype (n=6) and fed an HF/HC/BS diet. They were intragastrically administered with EZ at 10 mg/kg per day and were intraperitoneally injected with 4B9 at 10 mg/kg every other day. The mice were sacrificed on day 7 to collect their tissues.

[5] = test system: mice fed a high-fat, high-cholesterol, and cholate (HF/HC/BS) diet; assay: 4B9 and atorvastatin, alone or combined, in mice fed HF/HC/BS diet, 14 days (Example 2, FIG. 3)
Experimental: 8-week-old Asgr1 knockout mice and wild-type littermates are randomly divided into 8 groups as shown in the figure according to the genotype, with 6 mice per group. The mice are given free access to water and fed a high-fat, high-cholesterol, and cholate (HF/HC/BS) diet (60% fat, 1.25% cholesterol, and 0.5% cholate). […] After 14 days, the mice are fasted for 4 hours before being sacrificed. All data are presented as mean±SEM. Statistical significance is calculated using an unpaired two-tailed Student's t-test. *p<0.05, **p<0.01, ***p<0.001. (a) Western blotting analysis of liver samples; (b) total cholesterol in serum; (c) triglyceride in serum; (d) total cholesterol in liver; (e) triglyceride in liver; (f) concentration of cholesterol in bile; (g) total cholesterol in bile; (h) concentration of bile acid in bile; (i) total bile acid in bile; (j) total cholesterol in feces; (k) body weight; (l) daily food intake; (m) ratio of liver weight to body weight; (n) blood glucose; (o) alanine transaminase in serum; (p) aspartate transaminase in serum; (q-r) real-time quantitative PCR analysis of genes related to cholesterol efflux, cholesterol synthesis and absorption, lipid synthesis, and bile acid synthesis in the liver of mice, and genes in other pathways, with cyclophilin as an internal reference; (s) hematoxylin-eosin staining of liver sections; (t) oil red O staining of liver sections.
In the experiment, wild-type littermates were used as a control. All mice were housed in an SPF (specific pathogen-free) facility and kept on a 12-hour light/12-hour dark cycle. 8-week-old male or female mice were fed a high-fat, high-cholesterol, and cholate diet (Research Diets, D12109C) as required by the experimental protocols. For treatments involving antibody neutralization or the combination of antibodies with statins or Ezetimibe, the mice were intraperitoneally injected with antibodies or intragastrically administered with drugs at specified doses. All animals were fasted for 4 hours before being sacrificed.
The collected cells or tissues were lysed in RIPA lysis buffer supplemented with protease and phosphatase inhibitors. The RIPA lysis buffer contained 50 mM Tris-HCl (pH=8.0), 150 mM NaCl, 2 mM MgCl2, 1.5% NP-40, 0.1% SDS, and 0.5% sodium deoxycholate. The protease inhibitor contained 10 μM MG-132, 10 μg/mL leupeptin, 1 mM PMSF, 5 μg/mL pepstatin, 25 μg/mL ALLN, and 1 mM DTT. The protein concentration of the lysate was determined using a BCA method (Thermo Fisher Scientific). The protein samples were incubated with membrane solubilization buffer (62.5 mM Tris-HCl (pH=6.8), 15% SDS, 8 M urea, 10% glycerol, and 100 mM DTT) and 4× loading buffer (150 mM Tris-HCl (pH=6.8), 12% SDS, 30% glycerol, 6% β-mercaptoethanol, and 0.02% bromophenol blue) at 37° C. for 30 minutes. The protein samples were separated by SDS-PAGE and transferred to a PVDF membrane, which was blocked in TBST, i.e., TBS containing 0.075% Tween 20 and 5% skim milk (3% BSA for phosphorylation experiments) for 1 hour. The membrane was incubated overnight at 4° C. with a specified primary antibody, and washed three times with TBST. Finally, Pierce ECL Plus Western blotting substrate (Thermo Fisher Scientific) was used for detection.
Blood was collected from the orbital sinus to obtain serum for the measurement of total cholesterol and triglyceride.

[6] = wild-type mice, HF/HC/BS diet, 4B9 10 mg/kg/day i.p. every other day, 14 days, Western blotting (FIG. 2a)
[7] = sacrificed on day 7, 4B9 10 mg/kg i.p. every other day, EZ 10 mg/kg per day intragastric (FIGS. 4a, 4p-q)

B1: 4B9: ASGR1 monoclonal neutralizing antibody from immunized rabbits, rabbit Fc replaced with mouse Fc; VL SEQ ID NO: 28, VH SEQ ID NO: 29 (antibody, listed as Oryctolagus cuniculus, V domains shown)
VH: QSLEESGGDLVKPGATMTLTCKASGFSFSGSLWICWVRQAPGKGLEWIACIYVGSSGSTYYASWAKGRFTISTTSSTTVTLQMTSLTAADTATYFCARRYTDAYGGYPAGSFVFKLWGPGTLVTVSS
VL: QVLTQTPSPVSAAVGGTVTINCQASQSVYNNKNLGWYQQKPGQPPKLLIYYASDLASGVPSRFKGSGSGKQFTLTISDVQCDDAATYYCQGEFSCSSADCCAFGGGTEVVVK
modifications: mouse Fc
inhibited the levels: lipid synthesis-related genes and their proteins (SREBP1, FASN) in liver [4, 7] | lipid synthesis-related genes and their proteins (SREBP1, FASN) in liver ([5]; 4B9 10 mg/kg/day i.p. every other day, atorvastatin 30 mg/kg/day intragastric daily (FIGS. 3a, 3q-r))
without affecting the levels: cholesterol synthesis or absorption-related genes and their proteins in liver ([4]; sacrificed on day 7, 4B9 10 mg/kg i.p. every other day (FIGS. 4a, 4p-q)) | cholesterol synthesis or absorption-related genes and their proteins in liver ([5]; 4B9 10 mg/kg/day i.p. every other day (FIGS. 3a, 3q-r))
significant decrease: total cholesterol in serum ([3]; HF/HC/BS diet, 4B9 10 mg/kg/day i.p. every other day, 14 days, vs control group (FIG. 2c)) | total cholesterol in liver ([3]; HF/HC/BS diet, 4B9 10 mg/kg/day i.p. every other day, 14 days, vs control group (FIG. 2e)) | triglyceride in liver ([3]; HF/HC/BS diet, 4B9 10 mg/kg/day i.p. every other day, 14 days, vs control group (FIG. 2f)) | triglyceride in serum ([3]; HF/HC/BS diet, 4B9 10 mg/kg/day i.p. every other day, 14 days, vs control group (FIG. 2d))
consistent with protein-level changes: real-time quantitative PCR of liver genes (cholesterol efflux, cholesterol synthesis and absorption, lipid synthesis, bile acid metabolism) ([3]; HF/HC/BS diet, 4B9 10 mg/kg/day i.p. every other day, 14 days (FIG. 2b))
increased: total amount of total cholesterol in bile ([4]; sacrificed on day 7, 4B9 10 mg/kg i.p. every other day, EZ 10 mg/kg per day intragastric (FIG. 4g)) | total amount of total bile acid in bile ([4]; sacrificed on day 7, 4B9 10 mg/kg i.p. every other day, EZ 10 mg/kg per day intragastric (FIG. 4i)) | total amount of total cholesterol in bile ([5]; 4B9 10 mg/kg/day i.p. every other day, atorvastatin 30 mg/kg/day intragastric daily (FIG. 3g)) | total amount of total bile acid in bile ([5]; 4B9 10 mg/kg/day i.p. every other day, atorvastatin 30 mg/kg/day intragastric daily (FIG. 3i))
effectively reduce: total cholesterol in serum ([4]; sacrificed on day 7, 4B9 10 mg/kg i.p. every other day, EZ 10 mg/kg per day intragastric (FIG. 4b)) | triglyceride in serum ([4]; sacrificed on day 7, 4B9 10 mg/kg i.p. every other day, EZ 10 mg/kg per day intragastric (FIG. 4c)) | triglyceride in liver ([4]; sacrificed on day 7, 4B9 10 mg/kg i.p. every other day, EZ 10 mg/kg per day intragastric (FIG. 4e)) | total cholesterol in liver ([4]; sacrificed on day 7, 4B9 10 mg/kg i.p. every other day, EZ 10 mg/kg per day intragastric (FIG. 4d)) | total cholesterol in serum ([5]; 4B9 10 mg/kg/day i.p. every other day, atorvastatin 30 mg/kg/day intragastric daily (FIG. 3b)) | triglyceride in serum ([5]; 4B9 10 mg/kg/day i.p. every other day, atorvastatin 30 mg/kg/day intragastric daily (FIG. 3c)) | triglyceride in liver ([5]; 4B9 10 mg/kg/day i.p. every other day, atorvastatin 30 mg/kg/day intragastric daily (FIG. 3e)) | total cholesterol in liver ([5]; 4B9 10 mg/kg/day i.p. every other day, atorvastatin 30 mg/kg/day intragastric daily (FIG. 3d))
significantly reduced: BARD1 in liver [3, 6] | lipid synthesis-related proteins SREBP1 and FASN in liver [3, 6]
remained unchanged: all parameters in Asgr1 knockout mice with or without injection of 4B9 ([3]; Asgr1 knockout mice, HF/HC/BS diet, 4B9 10 mg/kg/day i.p. every other day, 14 days (FIG. 2a)) | LDLR in liver [3, 6]
significant increase: total amount of total cholesterol in bile ([3]; HF/HC/BS diet, 4B9 10 mg/kg/day i.p. every other day, 14 days, vs control group (FIG. 2i)) | total cholesterol in feces ([3]; HF/HC/BS diet, 4B9 10 mg/kg/day i.p. every other day, 14 days, vs control group (FIG. 2k)) | concentration of total bile acid in bile ([3]; HF/HC/BS diet, 4B9 10 mg/kg/day i.p. every other day, 14 days, vs control group (FIG. 2l)) | total amount of total bile acid in bile ([3]; HF/HC/BS diet, 4B9 10 mg/kg/day i.p. every other day, 14 days, vs control group (FIG. 2m)) | concentration of total cholesterol in bile ([3]; HF/HC/BS diet, 4B9 10 mg/kg/day i.p. every other day, 14 days, vs control group (FIG. 2h)) | volume of gallbladder ([3]; HF/HC/BS diet, 4B9 10 mg/kg/day i.p. every other day, 14 days, vs control group (FIGS. 2g, j))
No significant differences: body weight ([4]; 8 groups of mice, sacrificed on day 7, 4B9 10 mg/kg i.p. every other day, EZ 10 mg/kg per day intragastric (FIG. 4j)) | daily food intake ([4]; 8 groups of mice, sacrificed on day 7, 4B9 10 mg/kg i.p. every other day, EZ 10 mg/kg per day intragastric (FIG. 4k)) | ratio of liver weight to body weight ([4]; 8 groups of mice, sacrificed on day 7, 4B9 10 mg/kg i.p. every other day, EZ 10 mg/kg per day intragastric (FIG. 4l)) | blood glucose ([4]; 8 groups of mice, sacrificed on day 7, 4B9 10 mg/kg i.p. every other day, EZ 10 mg/kg per day intragastric (FIG. 4m)) | ALT ([4]; 8 groups of mice, sacrificed on day 7, 4B9 10 mg/kg i.p. every other day, EZ 10 mg/kg per day intragastric (FIG. 4n)) | AST ([4]; 8 groups of mice, sacrificed on day 7, 4B9 10 mg/kg i.p. every other day, EZ 10 mg/kg per day intragastric (FIG. 4o))
significantly up-regulated: cholesterol efflux-related genes (target genes of LXR) (target genes of LXR) | p-ACC in liver [3, 6]
increased levels: cholesterol efflux-related genes and their proteins (LXRs, ABCG8, ABCA1, CYP7A1) in liver [4, 7]
no significant changes: body weight ([3]; HF/HC/BS diet, 4B9 10 mg/kg/day i.p. every other day, 14 days (FIG. 2n)) | daily food intake ([3]; HF/HC/BS diet, 4B9 10 mg/kg/day i.p. every other day, 14 days (FIG. 2o)) | ratio of liver weight to body weight ([3]; HF/HC/BS diet, 4B9 10 mg/kg/day i.p. every other day, 14 days (FIG. 2p)) | blood glucose ([3]; HF/HC/BS diet, 4B9 10 mg/kg/day i.p. every other day, 14 days (FIG. 2q)) | ALT (alanine transaminase in serum) ([3]; HF/HC/BS diet, 4B9 10 mg/kg/day i.p. every other day, 14 days (FIG. 2r)) | AST (aspartate transaminase in serum) ([3]; HF/HC/BS diet, 4B9 10 mg/kg/day i.p. every other day, 14 days (FIG. 2s))
significantly increased: cholesterol efflux-related proteins (LXR, ABCG8, ABCA1, CYP7A1) in liver [3, 6] | total cholesterol in feces ([5]; 4B9 10 mg/kg/day i.p. every other day, atorvastatin 30 mg/kg/day intragastric daily (FIG. 3j))
significantly increase: protein stability of LXRα (LXRα [1]) | protein stability of LXRα (LXRα [2])
very significant lipid-lowering effect: overall lipid-lowering effect ([3]; summary of Example 1, high-fat, high-cholesterol diet)
